Measurements published in a protein production outcome set (Wang et al. 2014).

Experiment: label from the status in PepcDB records

| Sequence | protein production |
| --- | --- |
| MTTSATSGTGPTANSMRRALKRARDGVALDVTEAAVLLQARGEDLDDLTASAARVRDAGLEAAGRAGVITYSKSVFIPLTRLCRDKCHYCTFVTVPGKLRRAGHGMFMSPDEVLDIARKGAALGCKEALITLGDKPEDRWPEAREWLDAHGYDDTIAYVRAISIRILEETGLLPHLNPGVMSWTDFQRLKPVAPSMGMMLETTATRLWSEPGGPHHGSPDKEPAVRLRVLEDAGRSSVPFTSGILIGIGETYEERAESLFALRKISRAYHGIQELIIQNFRAKPDTAMRGMPDAELDELIATVAVARHIMGPRACLQAPPNLVDSEYGRLIGAGIDDWGGVSPLTIDHVNPERPWPQIDLLREQSAQAGFELRERLCVYPEFVQRGEPWLDPRLLPHVRALADPASGLAHADATVEGHPWQEPEEAFVAQGRTDLHHSIDTEGRTGDRRDDFDVVYGDWEALREAAAPGMVPERIDTDVRQALATAANDPTRLTDAEALALLHADGPALDALTRIADDVRKAAVGDDVTYIVTRNINFTNVCYTGCRFCAFAQRRTDADAYTLSLEQVADRAQQAWDVGAVEVCMQGGIHPDLPGTAYFDIAKAVKERVPGMHVHAFSPMEVVNGATRTGLSIREWLTAAKEAGLDSIPGTAAEILDDEVRWVLTKGKLPTATWIEVITTAHELGIRSSSTMMYGHVDQPRHWLGHFRTLARIQQQTGGFTEFVTLPFIHTNAPVYLAGIARPGPTTRDNRAVMAMARLLLHPHIPNIQTSWVKLGTEGAAEMLRSGANDLGGTLMEETISRMAGSSYGSYKSVKDLIAVAEAAGRPAKPRTTLYGEVPQERQRAAAASDGHLPELLPVLD | failed |
| MNDQVRLHYETWVYPRYPLAASVRRSDTYALSLDALYARFNGTLPPAAARRILLAGCGSFSPYPTAVANPGVPVTALDLSAANLRRARLHAWMHGRFGISFEQGDLMDPAAAQGEYGFIDSFGVIHHLADPLAGLRALERRLAPGGILRLMVYSRGARRVVESARRALRFAGVRDVARLKDLLRRSPPGSRLSHAVEASGEGGGDAGLADALLHPRARIFSIDELMAMVGETGLVPLRFAHSRALAEPGAEVVRLRGLEQAGEPVPNFVLYLGREPRGGCGLAPDALLMLNPALRHDVGVLRLAPLAVPPRLGLKNPVLGFADRRFLRRFSTPLPVSALTPTDRERVGPFLDALFVIPFR | failed |
| MKQKLLYLCLFVTLAVVGHSYIIYRFIHDGVLFTGPNDGMEQMVPIQMYLFDNWHHGNFFYASDFGLGGDFFSDLSYYFSTNIIFIINVIVIVLLKTFITLDTTHIMFWMTNALIVSIFKSAIAMLATYLYVRYIALNKKIAVLAAFIFVISPIYFRFTVYWPFFSDVFIWLPLLLWSIERFLKSGKIGFFIIIVAITLINNFYFAYYQLLTGLIYLTIRLVFRHQADIIPRFKSFMSLFIASVIGLGCSLPFFFPAIQSFFNNRRTPFDGNVDLFEPFNQNTNVFYDNYLIVILFITGQALLSFKLYKHYYFKLFAISTLILICASFVPFIDQIFNGFSAPQKRWHYLIAFNSAVLIGLYVKYFRTISIPNYIFSSVISLSIIGLSAWYYDDVVAWVWFAPIVSLIGFLILLINESHIKLKLTHLFVLSIMILTVLVSTVFIRNQIYFEDHVKRANAYFVNASLFNTPLQQQLVKDMNTHKLEDERIDWRVNEQDNTPMYQQFKGLSIYSSIFDHHILDFYYDELKINMQEESVSRYQSTNGRQNMSSLFSIKYLMVKRYQHNIPAYFKKIKNDGQYEIYENTLNLPSVRVSNKKYNSNDLHNPIDKEHAMMDGVILNNKGASYTAKAPNLLNQTRITYKDIDNKRNHQIHASKNDSHVQIHIPKHLRQRYHDFYLTIKVKRGLPDSNFSVQINNYTNNRLYNNSTYRTGVDTQLYRTQPDKNGNINVGLSPTGNYYLDIQSLHGENYNHLKSAYAKQNNDGHYTDIKNGVKVKLGPHEKGIATINIPYREGMTAYVDNKKIKPLNVNYMMTGVPVSKDSKEIIIKYRPKYWYTVTAISIIFIIGSLSWFMRKRYKNK | failed |
| MKKIFVIITTLLAVAIIIGSIITVVFSQRQAQTFKIQQQQFVKKPIPTLFLHGFGGSANSEKFMVKQAEKRGVTKDIITAYVSKDGAVTFKGKLRKDAVNPIVKIELENNRQGYLDKNAAWFKNVLTKLQSEYNFDKFNFVGHSMGNLTFAQYMMTYGNDKSLPQLNKQVNIAGTFNGVLNMNEDVNEITVDKDGKPSRMNQPYQQLRVLKDIYKGKGIEVLNIYGDLKDGTHSDGRVSNSSSKSLKYLLGNSPKSYRESKYEGEPAQHSQLHENENVANELIDFLWKK | failed |
| METEYDQVLRSVAQVNIADQIGESDDVERDGNGVKVSCFTEVFDDVTIQFQIIRLAKQIYVWVGCNSAKFGSLYAAASTRPSNTVSVTSVLGGTSDNTGSGIARRLVLKTGLNIILACNIPKNNPLLEAKAEKVLIRKLIDLGYTMSKPVRAT | failed |
| MNTTEFDGISHAEGLCDKEFIGKAISYLYRYGQIYIGKKIEPYGIGSGQFPFLMRLYREDGINQESLSDYLKIDKGTTARAIQKLVDEGYVFRQRDEKDRRSYRVFLTEKGKKLEPDMKKIASEWGEILFSSFDDRQRREITNSLEIMFENGLKIM | not failed |
| MSQETPYIFDARTADFDQSVIENSFHKPVLVDFWAEWCAPCKALMPMLQQIAESYQGELLLAKVNCDIEQDIVARFGIRSLPTVVLFKDGQPVDGFAGAQPESAVRAMLEPHVQMPPPPAADPLEQAEALFAEGRIGDAEALLKVLLGEDNSNAKALILYARCLAERGELGEAQTVLDAVKSDEHKAALAGAKAQITFLKQAADLPDAAELKARLAKDPQDDEALYQLAIQQLARQQYEAALEALLKLFMRNRSYNEGIAHKTLLQVFDLLGNDHPLVTAYRRKLFAALY | failed |
| YTVEPVQDGERSVTLRRAGGTPLVAAMYHLPAAGSPDFVGLDLAATILADTPSGRLYHALVPTKLASGVFGFTMDQLDPGLAMFGAQLQPGMDQDKALQTLTATLESLSSKPFSQEELERARSKWLTAWQQTYADPEKVGVALSEAIASGDWRLFFLQRDRVRDAKLDDVQRAAVAYLVRSNRTEGRYIPTEKPQRAPLAQRADLAAV | not failed |
| MDFLVAHFNLLRGLHILAVIAFMAGMLYLPRLFVYHTKATPGSQMDETFKVMERRLLRGIINPASIATAVFGLGLILADAQIRGWDFLLQPWMIAKLVALVGLYGFHGFLSASRKKFERGENVRSEKFWRMVNEIPFVLAIVIVMSVTTKYLNH | failed |
| MQKTDGLADRIWVVLVQPKYQGNIGAVARSMKNSGLSKLIIVGNRPDDEAFARSMGGRQILENAEIVDSLEEIVHRFTIVAGTSSTASSNLKRFRRLPVDPETFWKQMESQTGKVALVFGREDDGLRNEELDLCNYFIYIPGNPDYPVYNLSHAVAIVLYVMYRSYVPSDMIQHESIKPEHEVLLMSNILDI | not failed |
| MKDSDKEKENGKMGCWSIEHVEQYLGTDELPKNDLITYLQKNADAAFLRHWKLTGTNKSIRKNRNCSQLIAAYKDFCEHGTKSGLNQG | not failed |
| DNHGVVHCVESAPAAVSAGKRALSQLVEDQKIVFHTETVERAMNQLPAPTLVVLDPPRVGAGAETVRAIAQSGPQAAIHIGCDPATFARDIAEWSRNGFILEKLRVFDAFPGTHHCETIGLLTKKN | failed |
| MPTETFFNLPEEKRSRLIDVLLDEFAQNDYDSVSINRITERAGIAKGSFYQYFADKKDCYLYLIQLGIEQKTAFLRQTPPASTTDMFAYLRWLLDVGIQFQFHNPRLAQIAYKALYDDVPLPAETMQVIRHGSFAYFKQLVEQGIADGSLVPDLDADTAAFVLNVVFTELGNHLIERFAVNPAELLREGGIVLLQPAMRRVIEQVIDILERGMRRR | not failed |
| MTNLRKILLIPALIVVSVSSFFSCGVDRWPEYAHLTELDTWMYDIMQQNYLWYQYMPGYDEVNLFQDPATFLSKAKWDKDSYSFVDSVLEAPLPTYGFDYSLVKSQDNDTAYNALITYVIPESPAEKAGLQRGDWIMKVDTSYISKKYETQLLQGTIARELSMGVWKEVEEEPEEGEEVPEEPVMVYKVVPNGVTLDLGAAQSIEDQPVHKYKILTLDNGAKVGYLMYNSFTAGTNNDPEKYNNELRKVSTIFQEANVQATILDLRYNEGGSLDCVQLLATILVPNARMGTPMAYLEYNDKNLDKDATINFDQEVLKTGVNLNQNTLVAITSGTTAGAAEMLLTSLYKEEQAPNIIVMGSASKGQTVATEQFINETYRWSVNPVVCTVYNSDHDAGEDAFVLVPSDKFKISETSINGTTDYSQFLPFGNPKERMLSIAIQTLEGTYPPKDEDKEEETRSTKSIKIEKSVSSPASRRFAGGLRIK | failed |
| MTGASRARMHQLEREGDRPAKRVNKLLSDQETMIGAVLLGNNLINILASALATQVLTTLIPGPWGVAVATAAMTVLILIFAEVLPKTLAIVRSDDVARALSAPTLFIVRLFGPIIYAIQWIVRRTLRVFGVKLDMAVDVLAAHEEIRGAVDYHHSEGLVETDDRRMLGGVLDLSDMDVSEIMVHRKSMVLLDAGLPARELVDAVLEAQHTRIPLYRDQPDNIVGVLHARDLLKALAECPTGVEGLDIAAILREPWFIPDATNLKDQLNAFLKRKNHFALVVDEYGALQGLVTLEDILEEIVGEIEDEHDTTLDGVRRQGDGSVNVDGHVTVRDLNRAMDWRLPEGEAVTIAGLVIHEAQMIPEPGQTFIFYRHRFQVLRRQRNQITALRISARLDDDSDA | failed |
| MGHHHHHHSHMADNMTTTQIEVGPGATNATINFEAGILECYERFSWQRALDYPGQDRLHRLKRKLESRIKTHNKSEPENKRMSLEERKAIGVKMMKVLLFMDPSAGIEGFEPY | not failed |
| MMTVVKGLVTFRPMFALVLLSALVGCASAPKKAPPPSSFDATMSRAEAEVTNGGPEQALKTFEDAGRADPTRKEPWVRIAQLQFDRANYARAIVAAQEVLQRDPNDLVADGVLTVAGFRIANQSLQRLQGRGALVSGTARKEAEMLASTLRATMGDDILQPDEPKKRKPVRNARRAAPPAAKDAAPPKQTPNASADPFQNLGGN | failed |
| CDLERYPLTDLSEETFWNSESNAELALTSLYRGSLTDGVEYNPSDWWSYHGMIMMEHLSDNAFDRRGENNPFFKISSGNLTADNAFIKRYWETSYKRIGYCNRFLVGIQNSSESEKKTRMIAEARFLRATQYFYLASYFKNVPLVENVLTGEEANNVTKTSQADILKWCVTEFTAAAADLPRFSAIPAGEAGRACKQAALAFLGRTCMLQKDWKSGAKAFHDIMELGDNAINANYQELFYPSTGTSNKENIFYIQYLENYLGTGLPQHALSAKDGGWSLVNPAADLYESYEFKDGTPFSYDDPRYDPSNLGKDRDPRLDYTIYYNGAIFMGTEYKMSPDYSAAKKEKLDYTSEASRTGFMMRKYFEESTPINDVQSANGLTPVIRYAEVLLGYLECLVEDNQTITQGILDETINAVRGRASVNMPPVTEVTPAKLREIVRHERRIELAMEGIRYWDIMRWGIAHEVLSQKIWGAPYPGSTQYATTTKEVDPTGNYRWYVGKRAFRNPTDYTWPIPQSEQNINPNLRD | not failed |
| MASTVDSNFFSSVPALHSNLGLLSPDQIELAKILLENGQSHLFQQWPELGVDDKEKLAFFDQIARLNSSYPGGLAAYIKTAKELLADSKVGKNPYDGFSPSVPSGENLTFGTDNFIEMEKRGVVEARNAAFVLVAGGLGERLGYNGIKVALPRETTTGTCFLQHYIESILALQEASNKIDSDGSERDIPFIIMTSDDTHSRTLDLLELNSYFGMKPTQVHLLKQEKVACLDDNDARLALDPHNKYSIQTKPHGHGDVHSLLYSSGLLHKWLEAGLKWVLFFQDTNGLLFNAIPASLGVSATKQYHVNSLAVPRKAKEAIGGISKLTHVDGRSMVINVEYNQLDPLLRASGFPDGDVNCETGFSPFPGNINQLILELGPYKDELQKTGGAIKEFVNPKYKDSTKTAFKSSTRLECMMQDYPKTLPPTARVGFTVMDIWLAYAPVKNNPEDAAKVPKGNPYHSATSGEMAIYRANSLILQKAGVKVEEPVKQVLNGQEVEVWSRITWKPKWGMIFSDIKKKVSGNCEVSQRSTMAIKGRNVFIKDLSLDGALIVDSIDDAEVKLGGLIKNNGWTMESVDYKDTSVPEEIRIRGFRFNKVEQLEKKLTQPGKFSVED | failed |
| MIGLSKSRGALSMENQKMPEYETIRAAVAGEKWAVEKVVDCYKDEIDRLSTVAVRQPDGSTKQEINEDMRQSITKKLIEALPQFPLEEMEKGNVR | failed |
